Assay results taken from patent US20170298330A1.

Target: nMagHigh1-C714 (fused polypeptide of nMagHigh1 and a C-terminal side fragment of Cas9)
Assay: cell-based or functional assay

“N713-pMag (fused polypeptide of an N-terminal side fragment of Cas9 and pMag)” showed a frequency of HDR (integration of a HindIII site) at human EMX1 locus, RFLP analysis, blue light of 7.2%, an indel frequency at EMX1 locus after 0, 1, 3 and 6 hours of blue light, T7E1 assay of under 1% and a light-dependent Cas9 activity, luciferase plasmid HDR assay in HEK293T cells of 16.4 times.
